From patent publication US20200048312A1

Tests used:
[1] = target: antibodies of human serum sample 16CDV61278 (Zika IgG positive) (human); assay: blocking of wing DAGS ECL signal
[2] = target: antibodies of human serum sample 16CDV61275 (Zika IgG) (human); assay: blocking of wing DAGS ECL signal
[3] = target: antibodies of human serum sample 16CDV61197 (Zika IgG positive) (human); assay: blocking of wing DAGS ECL signal
[4] = target: antibodies of human serum sample 16CDV61278 (Zika IgG positive) (human); assay: blocking of ß-ladder DAGS ECL signal
[5] = target: antibodies of human serum sample 16CDV61275 (Zika IgG) (human); assay: blocking of ß-ladder DAGS ECL signal
[6] = target: antibodies of human serum sample 16CDV61197 (Zika IgG positive) (human); assay: blocking of ß-ladder DAGS ECL signal

B1: Dengue virus type 4 NS1 full length (protein)
chain: DTGCAVSWSGKELKCGSGIFVIDNVHTWTEQYKFQPESPARLASAILNAHEDGVCGIRSTTRLENIMWKQITNELNYVLWEGGHDLTVVAGDVKGVLSKGKRALAPPVNDLKYSWKTWGKAKIFTPEAKNSTFLIDGPDTSECPNERRAWNFLEVEDYGFGMFTTNIWMKFREGSSEVCDHRLMSAAIKDQKAVHADMGYWIESSKNQTWQIEKASLIEVKTCLWPKTHTLWSNGVLESQMLIPKAYAGPFSQHNYRQGYATQTVGPWHLGKLEIDFGECPGTTVTIQEDCDHRGPSLRTTTASGKLVTQWCCRSCTMPPLRFLGEDGCWYGMEIRPLSEKEENMVKSQVSA
Binder B1 has a Blocking [%] [1] of 4.5%, a Normalized to Zika Blocking [%] [1] of 4.9% and a Blocking [%] [2] of 2.48%. It also gave a Normalized to Zika Blocking [%] [2] of 3.3%, a Blocking [%] [3] of 0.891% and a Normalized to Zika Blocking [%] [3] of 1.2%. It also gave a Blocking [%] [4] of 2.6%, a Normalized to Zika Blocking [%] [4] of 3.7% and a Blocking [%] [5] of 25.1%. The Normalized to Zika Blocking [%] [5] was 27.3%, the Blocking [%] [6] was 31.6% and the Normalized to Zika Blocking [%] [6] was 50.3%.
